According to PMC314469, “Protein Interaction Networks by Proteome Peptide Scanning” (PLoS Biology, 2004):

T1: Abp1 SH3 (ABP1_YEAST), P15891
T1 chain: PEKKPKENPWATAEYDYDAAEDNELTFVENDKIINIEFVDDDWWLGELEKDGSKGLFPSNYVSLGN

T2: Boi1 SH3 (BOI1_YEAST), P38041
T2 chain: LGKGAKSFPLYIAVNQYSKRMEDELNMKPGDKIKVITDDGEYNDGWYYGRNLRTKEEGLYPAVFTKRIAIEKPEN

T3: Boi2 SH3 (BOI2_YEAST), P39969
T3 chain: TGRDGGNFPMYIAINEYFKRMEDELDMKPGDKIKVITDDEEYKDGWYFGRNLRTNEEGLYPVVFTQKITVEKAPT

T4: Myo5 SH3 (MYO5_YEAST), Q04439
T4 chain: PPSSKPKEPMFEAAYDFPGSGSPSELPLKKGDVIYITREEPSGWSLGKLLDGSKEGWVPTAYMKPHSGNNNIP

T5: Rvs167 SH3 (RV167_YEAST), P39743
T5 chain: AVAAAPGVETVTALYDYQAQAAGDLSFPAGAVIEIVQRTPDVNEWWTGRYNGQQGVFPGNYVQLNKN

T6: Yfr024 SH3 (LSB3_YEAST), P43603
T6 chain: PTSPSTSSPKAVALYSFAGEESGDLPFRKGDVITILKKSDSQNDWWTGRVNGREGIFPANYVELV

T7: Yhr016c SH3 (YSC84_YEAST), P32793
T7 chain: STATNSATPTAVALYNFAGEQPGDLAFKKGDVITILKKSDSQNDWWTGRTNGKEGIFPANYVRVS


Biological target: T1, Abp1 SH3 (ABP1_YEAST), P15891
Assay: SPOT array

| normalised SPOT signal, Boehringer light units (BLU); mean over the file's lines of this peptide | Binder |
| --- | --- |
| 40.4 | KLAILTSPFEPPKP [YJR064W 268-281] |
| 166 | TELNLSSPNVPGKP [YKL216W 127-140] |
| 310 | WETWLYKPGMPPRP [YNL045W 490-503] |
| 208 | ILTSLPVPPPPVRP [YDL140C 235-248] |

Biological target: T2, Boi1 SH3 (BOI1_YEAST), P38041
Assay: SPOT array

| normalised SPOT signal, Boehringer light units (BLU); mean over the file's lines of this peptide | Binder |
| --- | --- |
| 512 | LVGMRSFPLYPSGL [YDL068W 45-58] |
| 256 | RERPLEPPRKPMAS [YDR448W 142-155] |

Biological target: T3, Boi2 SH3 (BOI2_YEAST), P39969
Assay: SPOT array

| normalised SPOT signal, Boehringer light units (BLU); mean over the file's lines of this peptide | Binder |
| --- | --- |
| 325 | LVGMRSFPLYPSGL [YDL068W 45-58] |
| 41.1 | RERPLEPPRKPMAS [YDR448W 142-155] |

Biological target: T4, Myo5 SH3 (MYO5_YEAST), Q04439
Assay: SPOT array

| normalised SPOT signal, Boehringer light units (BLU); mean over the file's lines of this peptide | Binder |
| --- | --- |
| 226 | NASAMPAPYMPYYY [YIR010W 139-152] |
| 173 | KLAILTSPFEPPKP [YJR064W 268-281] |
| 96.8 | NAIAMALPNEPYPA [YLR342W 137-150] |
| 344 | NEHGMNAPSVPEFI [YOR290C 25-38] |
| 126 | NEIELLRPRSPVQK [YCL055W 320-333] |
| 241 | NALGLDPPPSPEDP [YLR203C 42-55] |
| 386 | LVGMRSFPLYPSGL [YDL068W 45-58] |
| 80.1 | NEGDLYPPEQPGVD [YJL115W 157-170] |
| 255 | NETKLKFPTLPEVP [YHR117W 470-483] |
| 111 | NEAPMLSPQRPYST [YLR006C 162-175] |
| 109 | NEKLHETPHLPSPV [YNL204C 272-285] |
| 967 | RERPLEPPRKPMAS [YDR448W 142-155] |
| 228 | TELNLSSPNVPGKP [YKL216W 127-140] |
| 172 | NFLKHYLPSSPGDI [YDL033C 241-254] |
| 87.2 | NAIEMALPNDPYPA [YGR032W 156-169] |
| 126 | MLFSWPYPEAPIEG [YPL087W 1-14] |
| 199 | MLNEHGVPVVPSRE [YER014W 436-449] |
| 255 | WETWLYKPGMPPRP [YNL045W 490-503] |
| 97.4 | NFPSLIDPHVPTYG [YDL223C 906-919] |
| 156 | NEFLHFDPHIPQPA [YNL223W 328-341] |
| 617 | ILTSLPVPPPPVRP [YDL140C 235-248] |
| 170 | NALKLIHPFMPFIS [YGR094W 895-908] |
| 20400 | NEDTFLPPPPPPPS [YHR165C 44-57] |
| 257 | MLKALFTPLIPVSF [YML068W 248-261] |
| 134 | NASLLRDPSAPYAH [YER064C 198-211] |

Biological target: T5, Rvs167 SH3 (RV167_YEAST), P39743
Assay: SPOT array

| normalised SPOT signal, Boehringer light units (BLU); mean over the file's lines of this peptide | Binder |
| --- | --- |
| 387 | LVGMRSFPLYPSGL [YDL068W 45-58] |
| 599 | RERPLEPPRKPMAS [YDR448W 142-155] |

Biological target: Sho1 SH3 (SHO1_YEAST), P40073
Sequence (P40073 295-366): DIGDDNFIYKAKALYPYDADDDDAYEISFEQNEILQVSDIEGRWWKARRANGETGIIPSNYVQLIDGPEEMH
Assay: SPOT array

| normalised SPOT signal, Boehringer light units (BLU); mean over the file's lines of this peptide | Binder |
| --- | --- |
| 82.5 | NVQPRKPSRVHSRN [634-647 Hypothetical ORF] |
| 291 | NKVPTNPKKFKKAP [326-339 " involved in silencing at telomeres, HML, and HMR"] |
| 152 | NKIPPKPRKVLQLL [93-106 Ribosomal protein L7A (L6A) (rp11) (YL8)] |
| 1380 | PFLPVLPQKPGGVR [35-48 succinate dehydrogenase membrane anchor subunit] |
| 339 | NLKPERPSKVSFEM [548-561 " Non-membrane-embedded, PEST sequence-containing protein"] |
| 130 | PKDPSSPQRDEILT [27-40 Hypothetical ORF] |
| 177 | NSPPVYPKRIRHFE [22-35 Hypothetical ORF] |
| 228 | PIMPTLPPRPYITI [537-550 Hypothetical ORF] |
| 197 | NIQPDLPPRKIMIP [90-103 Hypothetical ORF] |
| 85.4 | PLQPRPPVKPLSKQ [87-100 35 kDa mitochondrial ribosomal small subunit protein] |
| 117 | NIQPNIPLRSYRYL [782-795 Hypothetical ORF] |
| 190 | NNNPVPPQKINQPP [198-211 Hypothetical ORF] |
| 130 | NMVPLNPNRIIPDE [189-202 Product of gene unknown] |
| 206 | NLDPNPPVRGENLT [61-74 Hypothetical ORF] |
| 163 | PFIPKFPSRESVES |
| 85.1 | PNEPGAPSRLSFEN [285-298 ubiquitin carboxyl-terminal hydrolase] |
| 83.2 | PLIPDNPGRLLSSK [311-324 Hypothetical ORF] |
| 198 | NSLPSSPKKQPARN [173-186 Hypothetical ORF] |
| 900 | PLPPIPPTKSKTSP [535-548 serine/threonine protein kinase] |
| 38.1 | NYIPPDPPKDIQLN [239-252 Hypothetical ORF] |
| 102 | NVDPASPWRHELLS [76-89 Hypothetical ORF] |

Biological target: T6, Yfr024 SH3 (LSB3_YEAST), P43603
Assay: SPOT array

| normalised SPOT signal, Boehringer light units (BLU); mean over the file's lines of this peptide | Binder |
| --- | --- |
| 1940 | LVGMRSFPLYPSGL [YDL068W 45-58] |
| 13500 | RERPLEPPRKPMAS [YDR448W 142-155] |

Biological target: T7, Yhr016c SH3 (YSC84_YEAST), P32793
Assay: SPOT array

| normalised SPOT signal, Boehringer light units (BLU); mean over the file's lines of this peptide | Binder |
| --- | --- |
| 330 | LVGMRSFPLYPSGL [YDL068W 45-58] |
| 1830 | RERPLEPPRKPMAS [YDR448W 142-155] |
